Like-named read-outs stand apart in the source and are kept apart here. Where no end group is shown, it is not given here.
T1: His-tagged I-BAR domain of IRSp53, wild type (human, UniProt Q9UQB8-4 1-250)
T1 sequence: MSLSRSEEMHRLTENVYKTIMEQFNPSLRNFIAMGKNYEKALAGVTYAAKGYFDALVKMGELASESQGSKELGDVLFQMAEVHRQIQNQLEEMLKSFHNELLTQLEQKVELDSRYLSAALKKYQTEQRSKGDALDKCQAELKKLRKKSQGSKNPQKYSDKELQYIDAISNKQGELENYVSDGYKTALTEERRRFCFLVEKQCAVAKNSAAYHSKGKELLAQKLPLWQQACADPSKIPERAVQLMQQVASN


How the values were obtained:
[1] = target: T1, His-tagged I-BAR domain of IRSp53, wild …; assay: ITC
[2] = target: T1, His-tagged I-BAR domain of IRSp53, wild …; assay: ITC; remark: listed apart in the source

Binder	Kd [1] [µM]	Kd [2] [µM]
SEVVNPYAEVGG-NH2 [EPEC Tir-derived 12-mer peptide SEVVNPYAEVGG (residues 448-459)]	37 ± 14	
GTVQNPYADVKT-NH2 [EHEC Tir-derived dodecapeptide GTVQNPYADVKT (residues 452-463)]		59 ± 10

Source: paper PMC4063679 (Structure (London, England : 1993), 2011)
